Patent publication US20190231706A1, “SURFACTANT PEPTIDE NANOSTRUCTURES AND USES IN DRUG DELIVERY” (3-D Matrix, Ltd., priority 2017, published 2019)
Where two headings read alike, the source gives them in different places. Where a SMILES comes first, the peptide text is derived from it.

Tests used:
[1] = Transmittance study of surfactant peptides and peptide/siRNA complexes in aqueous solution; type: physicochemical; conditions: for Appearance of peptide mixed with siRNA in transmittance study: peptide 0.1% and 0.5% (w/v) with siRNA 0.01% and 0.05% (w/v), pH 7.5; for Transmittance (%) With siRNA (peptide %/siRNA %) 0.1%/0.01%: peptide 0.1%/siRNA 0.01%; for Transmittance (%) With siRNA (peptide %/siRNA %) 0.1%/0.01% / Transmittance (%) With siRNA (peptide %/siRNA %) 0.5%/0.05% / Transmittance (%) Peptide alone 0.1% (w/v) / Transmittance (%) Peptide alone 0.5% (w/v): aqueous solution pH 7.5; for Transmittance (%) With siRNA (peptide %/siRNA %) 0.1%/0.01% / Transmittance (%) With siRNA (peptide %/siRNA %) 0.5%/0.05%: * = significantly cloudy and phase-separated; for Transmittance (%) With siRNA (peptide %/siRNA %) 0.5%/0.05%: peptide 0.5%/siRNA 0.05%
[2] = AFM imaging of peptide and peptide/siRNA nanostructure; type: physicochemical; conditions: for Nanostructure of peptide / Diameter of the nanospheres: peptide alone
Source text: Nanostructure plays an important role in formulation of agents (e.g., therapeutics, such as siRNA).

[3] = literature reports; cited from earlier work
MCF-7 cell = assay: Cell toxicity, luciferase emission with peptides only or peptides/negative control siRNA; type: cell-based
Source text: siRNA (Luciferase GL3 duplex) was complexed with Ac-A4K-NH2 (SEQ ID NO: 55), Ac-A3KA3-NH2 (SEQ ID NO:55), Ac-A6K-NH2 (SEQ ID NO: 105), and a control agent (DharmaFECT 1; commercially available lipid transfection agent). The siRNA and peptide complexes arranged into nanospherical structures. A composition comprising the nanospherical structures was provided to tumor cells (MCF-7 cell; breast cancer cell line) in vitro to preliminary transfection efficacy and cell toxicity. Two methods were utilized for the present Example. For Method 1, MCF-7 cells were cultured on a plate. The siRNA and peptide complexes were added into the culture medium over the cells. The culture dish (96 wells) containing the siRNA and peptide complexes and the cells was incubated for 48 hours. For Method 2, a concentrated suspension of MCF-7 cells (5×10^6 cells/ml) was prepared in a tube. The siRNA and peptide complexes were applied into the suspension. The cell mixture was incubated for 1 hour in the tube. The cell mixture was plated in the culture dish and incubated for 48 hours. Luciferase emission from each sample was observed. Table 4 summarizes experimental conditions e.g., concentration of siRNA and peptide surfactants, charge ratio, and types of siRNA (e.g., Luciferase GL3 duplex or negative control thereof). The buffer used in this Example was Opti-MEM1 (serum-free). As control samples, buffer only, negative control (NC) siRNA with or without the peptide surfactants, DharmaFECT 1 with or without siRNA (or NC siRNA) were tested with the cells. Cell toxicity.

mouse tumor model = assay: Delivery of siRNA to tumor cells in vivo; conditions: siRNA/peptide complex administered to mouse tumor model
Experimental: The present Example describes, among other things, an exemplary use of surfactant peptides for delivery of siRNA to tumor cells in vivo. siRNA is complexed with Ac-A4K-NH2 (SEQ ID NO: 55), Ac-A3KA3-NH2 (SEQ ID NO:55), Ac-A6K-NH2 (SEQ ID NO: 105), or a control peptide. The siRNA and peptide complexes arrange into nanospherical structures. A composition comprising the nanospherical structures is administered to a mouse tumor model. One or more cancer associated genes is suppressed and the size of the tumor decreases.

[4] = Zeta potential by Zetasizer Nano ZS; type: physicochemical; conditions: 0.5 w/v % in an aqueous solution; in mV (unit assumed)
Experimental: Zeta potentials were measured by Zetasizer Nano ZS (Malvern) to characterize electrokinetic potential of the complex. Ac-A4K-NH2 (SEQ ID NO:55) concentration was 0.5 w/v % in an aqueous solution. siRNA (ribophorin II, RPN2) concentration was controlled for their various charge ratios of A4K/siRNA. The zeta potential of Ac-A4K-NH2 (SEQ ID NO:55) alone was +21.9, which represents that the surface of A4K nanosphere was positively charged because of the primary amine of lysine in Ac-A4K-NH2 (SEQ ID NO:55). As the equipment only detects dispersed phases larger than about 3.8 nm and the size of siRNA in water is about 2 nm in diameter, the measurement only reads the electrokinetic potential of Ac-A4K-NH2 (SEQ ID NO:55) or Ac-A4K-NH2 (SEQ ID NO:55)/siRNA complexes, not unassociated siRNA.

[5] = MCF-7, peptide only or with NC siRNA, 48 hours, Methods 1 and 2

## AAAAAK [A5K, exemplary conventional self-assembling peptide for comparison, reference compound]
[1]
  Appearance of peptide mixed with siRNA in transmittance study: cloudy and phase separated
  Transmittance (%) With siRNA (peptide %/siRNA %) 0.1%/0.01%: 95.5%
  Transmittance (%) With siRNA (peptide %/siRNA %) 0.5%/0.05%: 22.7* %
  Transmittance (%) Peptide alone 0.1% (w/v): 99.2%
  Transmittance (%) Peptide alone 0.5% (w/v): 71.9%

## AAAAK [A4K]
[1]
  Appearance of peptide mixed with siRNA in transmittance study: transparent and substantially without phase separation
  Transmittance (%) With siRNA (peptide %/siRNA %) 0.1%/0.01%: 98.7%
  Transmittance (%) With siRNA (peptide %/siRNA %) 0.5%/0.05%: 97.5%
  Transmittance (%) Peptide alone 0.1% (w/v): 99.4%
  Transmittance (%) Peptide alone 0.5% (w/v): 97.8%
[2]
  Nanostructure of peptide: nanospheric structures (spherical nanovesicles)
[3]
  Nanostructure / self-assembly (previously reported): does not exhibit relevant self-assembly in water

## Ac-AAAK-NH2 [Ac-A3K-NH2]
[2]
  Diameter of the nanospheres: 28 nm
  Nanostructure of peptide: nanospheres

## CC(=O)N[C@@H](C)C(=O)N[C@@H](C)C(=O)N[C@@H](C)C(=O)N[C@@H](CCCCN)C(=O)N[C@@H](C)C(=O)N[C@@H](C)C(=O)N[C@@H](C)C(N)=O [Ac-A3KA3-NH2, Ac-AAAKAAA-NH2] (Ac-AAAKAAA-NH2)
[2]
  Diameter of the nanospheres: 30 nm
  Nanostructure of peptide: nanospheres (i.e., spherical nanovesicles)
MCF-7 cell
  Cell toxicity (decrease in luciferase emission) compared with DharmaFECT: less toxic than DharmaFECT
Mouse tumor model
  Cancer associated gene expression: suppressed
  Size of the tumor: decreases

## AAAAAAK [A6K, reference compound]
[1]
  Appearance of peptide mixed with siRNA in transmittance study: cloudy and phase separated
  Transmittance (%) With siRNA (peptide %/siRNA %) 0.1%/0.01%: 38.4* %
  Transmittance (%) With siRNA (peptide %/siRNA %) 0.5%/0.05%: 15.3* %
  Transmittance (%) Peptide alone 0.1% (w/v): 94.8%
  Transmittance (%) Peptide alone 0.5% (w/v): 98.7%
[3]
  Nanostructure / self-assembly (previously reported): nanotubes

## CC(=O)N[C@@H](C)C(=O)N[C@@H](C)C(=O)N[C@@H](C)C(=O)N[C@@H](C)C(=O)N[C@@H](CCCCN)C(N)=O [Ac-A4K-NH2, Ac-AAAAK-NH2] (Ac-AAAAK-NH2)
[2]
  Diameter of the nanospheres: 85 nm
  Nanostructure of peptide: nanospheres (i.e., spherical nanovesicles)
MCF-7 cell; [5]
  Cell toxicity (decrease in luciferase emission) compared with DharmaFECT: less toxic than DharmaFECT
[4]
  Zeta potential of peptide alone: +21.9
Mouse tumor model
  Cancer associated gene expression: suppressed
  Size of the tumor: decreases

## AAAKAAA [A3KA3]
[1]
  Appearance of peptide mixed with siRNA in transmittance study: transparent and substantially without phase separation
  Transmittance (%) With siRNA (peptide %/siRNA %) 0.1%/0.01%: 98.7%
  Transmittance (%) With siRNA (peptide %/siRNA %) 0.5%/0.05%: 88.2%
  Transmittance (%) Peptide alone 0.1% (w/v): 99.2%
  Transmittance (%) Peptide alone 0.5% (w/v): 97.5%
[2]
  Nanostructure of peptide: nanospheric structures (spherical nanovesicles)

## A6K2A6: exemplary conventional self-assembling peptide for comparison (AAAAAAKKAAAAAA) [reference compound]
[1]
  Transmittance (%) With siRNA (peptide %/siRNA %) 0.1%/0.01%: 62.9* %
  Transmittance (%) With siRNA (peptide %/siRNA %) 0.5%/0.05%: 12.7* %
  Transmittance (%) Peptide alone 0.1% (w/v): 98.5%
  Transmittance (%) Peptide alone 0.5% (w/v): 83.1%

## CC(=O)N[C@@H](C)C(=O)N[C@@H](C)C(=O)N[C@@H](C)C(=O)N[C@@H](C)C(=O)N[C@@H](C)C(=O)N[C@@H](C)C(=O)N[C@@H](CCCCN)C(N)=O [Ac-A6K-NH2, reference compound] (Ac-AAAAAAK-NH2)
[2]; 0.1% (w/v)
  Thickness of each layer of double layer structure: 0.8 nm
MCF-7 cell; [5]
  Cell toxicity (decrease in luciferase emission) compared with DharmaFECT: less toxic than DharmaFECT
Mouse tumor model
  Cancer associated gene expression: suppressed
  Size of the tumor: decreases

## AAAK [A3K]
[1]
  Appearance of peptide mixed with siRNA in transmittance study: transparent and substantially without phase separation
  Transmittance (%) With siRNA (peptide %/siRNA %) 0.1%/0.01%: 81.1%
  Transmittance (%) With siRNA (peptide %/siRNA %) 0.5%/0.05%: 77.3%
  Transmittance (%) Peptide alone 0.1% (w/v): 96.2%
  Transmittance (%) Peptide alone 0.5% (w/v): 99.6%
[2]
  Nanostructure of peptide: nanospheric structures
